Assay results reported in patent US20230072133A1 (WUXI BIOLOGICS IRELAND, published 2023).

Assays:
Human TGF-β1 [1] = target: T1, Human TGF-β1 (human, UniProt P01137 279-390); experiment: ELISA, plate coated with human TGF-β1, antibody titrated, HRP goat anti-human IgG
T1 construct: 22 kDa was used for the molar concentration in SPR
Method: (§1) The binding of antibodies to human TGF-β1, TGF-β2 and TGF-β3 was determined by ELISA. Plates were coated with human TGF-β1, TGF-β2 or TGF-β3 overnight at 4° C., respectively. After blocking and washing, various concentrations of testing antibodies were added to the plates and incubated at room temperature for 1 hour. The plates were then washed and incubated with HRP-labeled goat anti-human IgG antibody (Bethyl) for 1 hour. After washing, TMB substrate was added and the color reaction was stopped by 2M HCl. The absorbance at 450 nm and 540 nm was read using a microplate reader (SpectraMax M5e).

[2] = target: T2, Human PD-L1 extracellular domain (ECD) antigen His tagged (human, UniProt Q9NZQ7 19-238); experiment: SPR (Biacore 8K), antibody captured by anti-human IgG Fc, PD-L1 as analyte, 1:1 model
T2 construct: extracellular domain; The SPR and the PD-L1-coated ELISA say only 'human PD-L1'; also called human PD-L1 ECD protein; Human PD-L1 (SPR analyte); not shown: His tag
T2 sequence (Q9NZQ7 19-238): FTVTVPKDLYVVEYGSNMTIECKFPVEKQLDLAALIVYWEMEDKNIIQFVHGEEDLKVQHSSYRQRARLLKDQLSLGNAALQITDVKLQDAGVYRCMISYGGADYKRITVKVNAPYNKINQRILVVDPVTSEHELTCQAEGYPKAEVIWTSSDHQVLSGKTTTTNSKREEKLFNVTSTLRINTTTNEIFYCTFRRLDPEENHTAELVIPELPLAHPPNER
Method: (§2) Antibody was captured on an anti-human IgG Fc antibody immobilized CM5 sensor chip (GE). Human or cyno PD-L1 at different concentrations were injected over the sensor chip at a flow rate of 30 μL/min for an association phase of 180 s, followed by 3600 s dissociation. Mouse PD-L1 at different concentrations were injected over the sensor chip at a flow rate of 30 μL/min for an association phase of 120 s, followed by 1200 s dissociation. The chip was regenerated by 10 mM glycine (pH 1.5) after each binding cycle.
(§3) The sensorgrams of blank surface and buffer channel were subtracted from the test sensorgrams. […] The experimental data was fitted by 1:1 model using Langmiur analysis. Molecular weight of 40 kDa was used to calculate the molar concentration of human, mouse and cyno PD-L1.

[3] = target: T3, Cynomolgus monkey (cyno) PD-L1 ECD antigen His tagged (cynomolgus monkey, UniProt G7PSE7 19-238); experiment: as above
T3 construct: also called Cyno PD-L1 (SPR analyte)
T3 sequence (G7PSE7 entry or part of it limits assumed): as the sequence (Q9NZQ7 19-238) above, with A33T, A34S, S62N, R68Q, Q82R, F173L, T185A, T192I, H215L counted along it
Method: as §2, §3

Human TGF-β3 [4] = target: T4, Human TGF-β3 (human, UniProt P10600 301-412); experiment: ELISA, plate coated with human TGF-β3
T4 construct: also called TGF433 [sic]
T4 sequence (looked up): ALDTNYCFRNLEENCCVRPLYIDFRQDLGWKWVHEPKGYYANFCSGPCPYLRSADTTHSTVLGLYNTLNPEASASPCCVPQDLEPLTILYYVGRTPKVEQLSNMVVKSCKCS
Method: as §1

Human TGF-β1 [5] = target: T1, Human TGF-β1; experiment: dual binding ELISA coating with TGF-β1, WT1122 after 0 to 14 days in human serum at 37 °C, detected with biotinylated human PD-L1 ECD and streptavidin-HRP [upper panel]
Method: After blocking and washing, various concentrations of testing antibodies were added to the plates and incubated at room temperature for 1 hour. […] After washing, TMB substrate was added and the color reaction was stopped by 2M HCl. The absorbance at 450 nm and 540 nm was read using a microplate reader (SpectraMax M5e).
(§4) The samples were quickly thawed immediately prior to the stability test.

[6] = target: T5, Cynomolgus monkey PD-L1, full length, on transfected cells (W315-293F.cynoPro1.2A2) (cynomolgus monkey, UniProt G7PSE7 19-290); experiment: FACS on cyno PD-L1 expressing 293F cells
T5 construct: also called cyno PD-L1; cell surface cyno PD-L1
T5 sequence (G7PSE7 entry or part of it limits assumed): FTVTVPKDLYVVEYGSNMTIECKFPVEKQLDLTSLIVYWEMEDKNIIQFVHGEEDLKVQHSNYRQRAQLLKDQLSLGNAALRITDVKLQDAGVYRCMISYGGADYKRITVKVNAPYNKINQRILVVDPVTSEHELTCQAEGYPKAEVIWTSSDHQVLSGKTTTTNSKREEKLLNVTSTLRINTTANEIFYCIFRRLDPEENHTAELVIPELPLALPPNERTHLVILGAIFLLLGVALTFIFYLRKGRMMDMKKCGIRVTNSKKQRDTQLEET
Method: (§5) The binding of testing antibodies to cynomolgus monkey or mouse PD-L1 was determined by FACS. Various concentrations of testing antibody were incubated with cynomolgus PD-L1-expressing W315-293F.cynoPro1.2A2 cells or mouse PD-L1 expressing W315-293F.mPro1.C1 cells at 4° C. for 1 hour, and then the binding of antibodies to the surface of the cells was detected by PE-labeled goat anti-human IgG-Fc antibody (Jackson Immuno Research). MFI of the cells was measured by a flow cytometer and analyzed by FlowJo.

[7] = target: T6, Mouse PD-L1, full length, on transfected cells (W315-293F.mPro1.C1) (mouse, UniProt Q9EP73 19-290); experiment: FACS on mouse PD-L1 expressing 293F cells
T6 construct: whole, on cells; also called cell surface mouse PD-L1
T6 sequence (Q9EP73 19-290): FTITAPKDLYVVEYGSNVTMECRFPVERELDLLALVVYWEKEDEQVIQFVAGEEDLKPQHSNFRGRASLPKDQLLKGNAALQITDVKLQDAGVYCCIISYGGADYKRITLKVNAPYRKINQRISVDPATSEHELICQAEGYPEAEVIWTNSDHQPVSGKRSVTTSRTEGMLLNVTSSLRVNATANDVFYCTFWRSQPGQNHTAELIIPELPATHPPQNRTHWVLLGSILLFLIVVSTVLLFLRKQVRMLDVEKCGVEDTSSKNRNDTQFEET
Method: as §5

Human TGF-β2 [8] = target: T7, Human TGF-β2 (human, UniProt P61812 303-414); experiment: ELISA, antibody immobilized, soluble TGF-β2 titrated; ELISA with antibody immobilized and soluble TGF-β2 titrated: binds
T7 sequence (looked up): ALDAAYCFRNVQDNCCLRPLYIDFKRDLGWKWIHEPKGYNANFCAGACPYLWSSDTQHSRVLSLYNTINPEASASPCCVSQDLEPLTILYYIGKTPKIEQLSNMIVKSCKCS
Method: The binding of antibody to human TGF-β2 was also determined by ELISA immobilized with testing antibodies. After blocking and washing, various concentrations of TGF-β2 were added to the plates and incubated at room temperature for 1 hour. The plates were then washed and incubated with biotinylated TGF-β2 detection antibody (R&D, DY240) for 1 hour, followed by streptavidin-HRP for 1 hour. After washing, TMB substrate was added and the color reaction was stopped by 2M HCl. The absorbance at 450 nm and 540 nm was read using a microplate reader (SpectraMax M5e).

Human TGF-β2 [9] = target: T7, Human TGF-β2; experiment: SPR (Biacore 8K), antibody immobilized on CM5, TGFβ as analyte, 1:1 model; SPR with WT1122 as ligand on the chip and soluble TGF-β2 as analyte: binds
Method: (§6) Antibody binding affinity to TGFβ was detected by SPR assay using Biacore 8K. Each antibody was immobilized on CM5 sensor chip (GE). Human TGFβ1 and TGFβ3 at different concentrations were injected over the sensor chip at a flow rate of 50 uL/min for an association phase of 240 s, followed by 1200 s dissociation. Human TGFβ2 at different concentrations were injected over the sensor chip at a flow rate of 50 uL/min for an association phase of 240 s, followed by 300 s dissociation. The chip was regenerated by 10 mM glycine (pH 1.5) after each binding cycle.
(§7) The sensorgrams of blank surface and buffer channel were subtracted from the test sensorgrams. The experimental data was fitted by 1:1 model using Langmiur analysis. Molecular weight of 22 kDa, 24 kDa and 22 kDa were used to calculate the molar concentration of analyte TGFβ1, TGFβ2 and TGFβ3, respectively. The results are shown in […]

[10] = target: T8, Human PD-L1, full length, on transfected cells (W315-CHO-K1.hProl.C11) (human, UniProt Q9NZQ7 19-290); experiment: PD-L1 FACS on human PD-L1 expressing cells, WT1122 after 0 to 14 days in human serum at 37 °C [lower panel]
T8 construct: whole, on cells; Also used here for the human PD-L1 on the artificial APC (CHO-K1 with human PD-L1 and OKT3 scFv) of the reporter gene assay; also called hPD-L1; cell surface human PD-L1
T8 sequence (Q9NZQ7 19-290): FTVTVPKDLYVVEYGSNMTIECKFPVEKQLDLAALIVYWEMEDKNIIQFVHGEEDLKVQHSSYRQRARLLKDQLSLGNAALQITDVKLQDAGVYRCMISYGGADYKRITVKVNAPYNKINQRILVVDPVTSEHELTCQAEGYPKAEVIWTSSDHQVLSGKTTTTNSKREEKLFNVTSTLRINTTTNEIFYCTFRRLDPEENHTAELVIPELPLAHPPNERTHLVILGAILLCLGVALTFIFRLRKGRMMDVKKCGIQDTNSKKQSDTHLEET
Method: (§8) Various concentrations of testing antibodies were incubated with hPD-L1 expressing W315-CHO-K1.hProl.C11 cells at 4° C. for 1 hour. After washing, the cells were incubated with PE-labeled goat anti-human IgG-Fc antibody (Jackson Immuno Research). Finally, the MFI of the cells was measured by a flow cytometer and analyzed by FlowJo.
as §4

Human TGF-β3 [11] = target: T4, Human TGF-β3; experiment: SPR (Biacore 8K), antibody immobilized on CM5, TGFβ as analyte, 1:1 model
Method: as §6, §7

Human TGF-β1 [12] = target: T1, Human TGF-β1; experiment: as above
Method: as §6, §7

[13] = target: T8, Human PD-L1, full length, on …; experiment: competition FACS: blocks mFc tagged human PD-1 binding to human PD-L1 expressing cells
Method: MFI of the cells was measured by a flow cytometer and analyzed by FlowJo.

Human FcRn = Human FcRn (human, UniProt P55899 24-297; P61769 21-119); experiment: SPR (Biacore 8K), antibody immobilized on CM5, human FcRn as analyte, steady-state model, pH 6.0
Method: Each antibody was immobilized on CM5 sensor chip (GE). […] The chip was then regenerated by 10 mM glycine (pH 1.5) after each binding cycle. The sensorgrams of blank surface and buffer channel were subtracted from the test sensorgrams.

[14] = target: T9, Mouse PD-L1 (soluble SPR analyte) (mouse, UniProt Q9EP73 19-239, limits assumed); experiment: SPR (Biacore 8K), antibody captured by anti-human IgG Fc, mouse PD-L1 as analyte, 0-300 s curves fitted
T9 construct: 40 kDa used for molarity
T9 sequence (Q9EP73 19-239 limits assumed): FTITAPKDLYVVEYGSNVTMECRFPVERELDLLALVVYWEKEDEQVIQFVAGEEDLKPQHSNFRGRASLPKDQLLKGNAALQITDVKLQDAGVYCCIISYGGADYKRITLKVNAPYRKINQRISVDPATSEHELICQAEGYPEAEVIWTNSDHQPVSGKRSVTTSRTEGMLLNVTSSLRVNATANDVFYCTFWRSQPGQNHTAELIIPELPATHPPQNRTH
Method: as §2, §3

Human TGF-β3 [15] = target: T4, Human TGF-β3; experiment: ELISA, plate coated with human TGF-β3, antibody titrated, HRP goat anti-human IgG
Method: as §1

[16] = target: T8, Human PD-L1, full length, on …; experiment: FACS on human PD-L1 expressing CHO-K1 cells
Method: as §8

Human TGF-β1 [17] = target: T1, Human TGF-β1; experiment: cell-based or functional assay
[18] = target: T8, Human PD-L1, full length, on …; experiment: cell-based or functional assay
Human TGF-β1 [19] = target: T1, Human TGF-β1; experiment: ELISA, plate coated with human TGF-β1
Method: as §1

T1 sequence (P01137 279-390 limits assumed): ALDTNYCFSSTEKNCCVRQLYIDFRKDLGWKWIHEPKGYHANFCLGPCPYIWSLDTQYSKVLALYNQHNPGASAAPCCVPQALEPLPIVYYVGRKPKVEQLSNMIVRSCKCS

EC50 (read off the curve) (Human TGF-β1 [1]): ~0.5 nM | Kd [2]: 0.695 nM | koff [2]: 0.00168 s⁻¹ | kon [2]: 2.41e+06 M⁻¹ s⁻¹ | Kd [3]: 0.446 nM | koff [3]: 0.00135 s⁻¹ | kon [3]: 3.03e+06 M⁻¹ s⁻¹ | EC50 (Human TGF-β3 [4]): 0.8 nM | EC50 (read off the curve) (Human TGF-β1 [5]): ~0.4 nM | EC50 [6]: 1.08 nM | EC50 [7]: 1.2 nM | EC50 (Human TGF-β2 [8]): 0.07 nM | Kd (Human TGF-β2 [9]): 0.369 nM | koff (Human TGF-β2 [9]): 0.0149 s⁻¹ | kon (Human TGF-β2 [9]): 4.02e+07 M⁻¹ s⁻¹ | EC50 (read off the curve) [10]: ~0.2 nM | Kd (Human TGF-β3 [11]): 1.62 pM | koff (Human TGF-β3 [11]): 9.35e-05 s⁻¹ | kon (Human TGF-β3 [11]): 5.78e+07 M⁻¹ s⁻¹ | Kd (Human TGF-β1 [12]): 1.65 pM | koff (Human TGF-β1 [12]): 0.000206 s⁻¹ | kon (Human TGF-β1 [12]): 1.25e+08 M⁻¹ s⁻¹ | IC50 [13]: 0.04 nM | Kd (Human FcRn): 2570 nM | Kd [14]: 1080 nM | EC50 (read off the curve) (Human TGF-β3 [15]): ~0.8 nM | EC50 [16]: 0.7 nM | TGF-β1 blockade IC50, SBE luciferase reporter gene assay (RGA) (Human TGF-β1 [17]): 1.2 nM | hPD-1/PD-L1 signaling blockade IC50, NFAT luciferase reporter gene assay (RGA) [18]: 0.31 nM | EC50 (Human TGF-β1 [19]): 0.5 nM
B1: WT1122-U14T1.G15-1.uIgG1 (antibody)
heavy: not shown
light: SYELTQPPSVSVSPGQTASITCSGSELPKRYAYWYQQKPGQSIVRVIYKDSERPSGISERFSGSSSGNTATLTISGTQAMDEADYYCSSTYGDRKLPIFGGGTKLTVLGQPKAAPSVTLFPPSSEELQANKATLVCLISDFYPGAVTVAWKADSSPVKAGVETTTPSKQSNNKYAASSYLSLTPEQWKSHKSYSCQVTHEGSTVEKTVAPTECS
